Test results published in patent publication US20240408220A1, “PEPTIDE DENDRONS AND METHODS OF USE THEREOF” (ASTRAZENECA AB, priority 2021, published 2024).
Where no end group is shown, it is not given here. [ ]: non-standard residue; d: D form. Cit = NC(=O)NCCC[C@H](N)C(=O)O

Experiments:
[1] = Anionic stability assay (dextran sulfate dissociation of NPs); type: physicochemical
Protocol: Dextran sulfate (DS) solutions were prepared in 20 mM HEPES and added to NP solutions (prepared as in Example 4) so the final DS concentration was between […] and DNA concentration was 10 μg/mL. After a 15-minute decomplexation period, 15 μl of each formulation was added to a 2% E-gel with ethidium bromide and run for 10 minutes. pDNA release was calculated using ImageJ (NIH, Bethesda, Maryland) and the results shown in FIG. 2A where the percent of intact nanoparticles Is plotted as a function of DS concentration.

[2] = molecular target: Cathepsin-B (Homo sapiens, UniProt P07858); test: Enzymatic DNA release from NPs by cathepsin-B; type: biochemical; details: relative to non-modified PD3 and all PD2 formulations
Protocol: NPs prepared as in Example 4 but in 8 mM L-Cysteine HCl buffer pH 6 at a final DNA concentration of 0.1 μg/μl. Cathepsin-B stock solution (60 units/mL) was subsequently added. Cat-B NP solutions were incubated at 37° C. for up to 4 hours. Aliquots were removed at the appropriate time points and analysed via agarose gel electrophoresis to visualize released DNA. DNA dilutions were prepared at different concentrations as a control and likewise added to the same agarose gel for subsequent quantification using bio-rad intensity software analysis and the results shown in FIG. 2B.

Substance	dextran sulphate concentration above which DNA was readily released [1]	DNA release in response to cathepsin-B activity [2]
({LEU}{ARG}8{LYS}{LEU}{ARG}4{LYS}{LEU}{ARG})2{LYS}{GLY}{VAL}{CIT}{GLY}{GLY}{SER}{CYS} (chain 1 LRKLRKLRKGV[Cit]GGSC-NH2; chain 2 LRKLRKLR; chain 3 LRKLR; also: branched dendron: side chains of K3, K6, K9 (chain 1) and K3, K6 (chain 2) amide-linked to other sequences, chain 2 C-terminus linked to another sequence) [PD1, comparison peptide dendron without modified lysines]	exceeding 50 μg/mL	–
({LYS(M)}{LEU}{ARG})8({LYS}{LYS(M)}{LEU}{ARG})4({LYS}{LYS(M)}{LEU}{ARG})2{LYS}{GLY}{VAL}{CIT}{GLY}{GLY}{SER}{CYS} (chain 1 K(2‑morpholinoacetyl)LRKK(2‑morpholinoacetyl)LRKK(2‑morpholinoacetyl)LRKGV[Cit]GGSC-NH2; chain 2 K(2‑morpholinoacetyl)LRKK(2‑morpholinoacetyl)LRKK(2‑morpholinoacetyl)LR; chain 3 K(2‑morpholinoacetyl)LRKK(2‑morpholinoacetyl)LR; also: branched dendron: side chains of K4, K8, K12 (chain 1) and K4, K8 (chain 2) amide-linked to other sequences) [PD3(M)]	–	readily released DNA in response to cathepsin-B activity
